Assay results: the DeepSol protein solubility set

Assay: soluble on expression in E. coli; label from the status in PepcDB or PDB records

Soluble on expression in E. coli, not soluble:
MGSDKIHHHHHHMDRKLLRLYQPLNAYSYNSDSLFLYDFSRPFIKNSGAILDIGSGCGILGLLCARDNPLAIVHLVEKDNKMAFCSQKNALKFPNAQVFEGDFLDFNPPILYDIIVCNPPFYALGSIKSKIKGHARHQSELDFASLVAKVKKCLKPKGYFIFCYEALSLCLVIEGLKSVKLTLETLRFVQSFKDKNAHLMLGAARNNSKSALKVLPPLITHHSKNQSDNTKEVLSIYQTCNTYSIKALLN, MGSDKIHHHHHHMDTKFSCVGCGGCCTDHHVPLTLLEARQWAADGGNVIVLTEAFLSNGYGVAQNQLTHATRRSTEVNSGSTTAFVAITFAAYNVGRCRNLDEENLCRIYERRPLVCRIYPMEINPHIPLRPETKGCPPESWEQGPDLIVGDTLVDTQLMSLIEQSRQADRDEIAAKQLICQQLGIRTTALKGNGFVAYLPDMNAFAAAIENVANLAGAAPENSDWEFHVAGQHVVDTLQQEGADVTDREPVSYLFIPLQAA, MGSDKIHHHHHHMDTQRGSLRGKAHKARLKMTPNGRRQLLLERGAAFSKNRTPGLKHVDRHTIVDSDGLSIHTYMVGHAENATATVVFIHGFTLAAEVYYMQVDYLQTFYPNIKSVLIDARGHGATGQIRPELCTIEGTANDVLAAIHEHAPTGPLILVGHSLGGLTALNLVKRADHSLRKRIVGMVLVATSIESLSTQGLPQVLASPLADNIKNAVEAAPNDAQKFRQYATTFLAPTLATAVFQRDTNDEVIDFHAAMIHETPLDTFVGFFDDLQEHDELDAAPALEGLKGYVLAGELDDVTPISQADRICEVWPGARLQIAEGAGHMLPLEAPGILNNAIGNILDGLG, MGSDKIHHHHHHMDYDYIIVGAGAAGLSLAYHLGQSALADQTILIIDPNHTRQNDRTWCFWEVGDGPFEAVVSRRWEHLWLYDKHWSARMAIAPYRYKLIQGIDFYQFVDHWLAQRPNITRLQGSVDRLVELPEGVAAVVGGRQYTARYAFNSVYRPVPTPPGYHTWLQHFKGWVIKTPQPVFDAEAATFMDFRIPQAGDVRFGYVLPFDTCTALVEYTIFSPQLVSQTEYEIGLQRYIAEQLGIDRYEITHVEYGVIPMSDVPLPLRPSPHVLNIGTAGGMSKPSTGYTFQRIQRQTRQIVASLTKEGHPFYRQPLFNRHALMDSILLNVLDAGRTPGHRFFANLFRHNPIQRVLRFLDEETTIAEDIALMSTVEMMPFAIAALAVFWGRMSSLGRREWEMG, MGSDKIHHHHHHMDYLDKLTHLAQVRGEINIRCEFQGEWQISHQEKDAGKGIFHLIEQGECWLTLNEKQFHLKEGDVFFLPQNQPHSMHYSANKRADIPTKKSHQGLFELHQIGRGTPDLKMFCGNFYYQQDALLTASMPEYLHINLCDTPIHPLVQLFLQEAQKNDAGTKSVVDALSNVLLIYILRHAIQQNLIEQGILFALQDKRLNTALIAILQQPQNDWHIEQLAELATMSRANFIRIFQQHIGMSPGRFLTKVRLQSAAFLLKQSQQSVLAIALEVGYQSEAHFCKVFKNYYQLSPSQYRKSVSL, MGSDKIHHHHHHMECHIDLHNTVIQRRVPRDGRAAKHIGIAVFNGFSLLDTVSIVEAFETANRFAEASRHDAPRYVVRLLSSAGGRIASSSSVFVWTDSVEARGHAHDFHALFIAGGTGVHDAARDGRLLAWLRRTHLRSENVLSIAEGQFLLEAAGFASSAGIGSARGLVPRHYFRRETDPATQREVSSPLESALNLIEADLGTEITCKAAASLAPRASTQFTSVLNRNASGSVSDKIRASAQWLEANGHQPISIDRAAGIAAMSERNFLRRFKAEIGVTPSGYLLYVRLDMSCRLLVETALPVDKIARRCGFGDGGQLARLFRKHMGTTPSEYRNSHRQPHDR, MGSDKIHHHHHHMEEIVLFHTNDLHSHFENWPKIRRLVKAKRSLYQKEGKTVVTIDLGDFSDRCHPLTEATDGRANVAIMNTLAYDLVTIGNNEGIGNSKKQLEHLYDQATFEVVLANLEEPKTQTLPDFCQAYKIMTTKEGTKLGFIGLTAPFPLTYNPNGWTIKQVEAVLPQLITEVAPQCDVLILLSHLGIDTDFMIAANYPEIQVILGSHTHHLFKDGEKINHVQLAAAGKYGQYIGEVHLFVDADTKQVTSYAKTIETASLEEQATDAKEIAGYLTEGHRLLQAQQIAQIPETLSTDLRQPHAFITVALKALKEAGQTEAAVLNNGLFLADLPEGIINADQLHEALPHPMHLIKVTLKGSDMSRLIREMEKSRQFLRKFPIRGMGFRGKIFGELCYDGIRFEPNSQTVFWQGKPIQPEQKYTLTTVDHFQFVPFFPTIELVGEVEFLFPDVLRTVVANYLHAHYPIK
